In US20020103111A1, “Inhibitors of MAdCAM-1-mediated interactions and methods of use therefor” (Millennium Pharmaceuticals, Inc., priority 1996, published 2002):
Square brackets hold non-standard residues; d marks the D form. Ends that are not written are not given here. NMeL = CN[C@@H](CC(C)C)C(=O)O

These substances were tested against human α4β7 integrin (human) (UniProt P13612) (assay: inhibition of HUT 78 cell adhesion to murine MAdCAM-1/mCk).

Substance	IC50 [µM]
Pba-Asp-Thr (peptide)	13.5
Ac-MeLeu-Asp-Thr-Ser-Leu (peptide)	150
Pca-Asp-Thr (peptide)	11
Cpc-Asp-Thr-Ser-Leu (peptide)	8.9
Pba-Leu-Asp-Thr-Ser-Leu (00789-1A) (peptide)	4
Pca-Leu-Asp-Thr-Ser-Leu (peptide)	2.1
2-Anc-Leu-Asp-Thr-Ser-Leu (peptide)	5.4
Dphb-Leu-Asp-Thr-Ser-Leu (peptide)	15
[NMeL]LDTSL	256
Pba-Asp-Thr-Ser-Leu (peptide)	13.3
Ac-[NMeL]LDTSL	1320

These substances were tested against human α4β7 integrin (human) (UniProt P13612) (assay: inhibition of HUT 78 cell adhesion to murine MAdCAM-1/mCk at 100 µM).

Substance	% Adhesion Inhibition [%]
Pba-Asp-Thr (peptide)	100
Pba-Asp-Thr-Ser-Leu (peptide)	100

Each substance was assayed against human α4β7 integrin (human) (UniProt P13612) (assay: RPMI 8866 adhesion to chimera on Protein A; neat; after control MAb 2G7).

Substance	bound cells (raw fluorescence)
human MAdCAM-1-IgG chimera (huMAdCAM-1-Ig, construct HuMAdIg21) (from UniProt P01857 1-330) (Fc fusion)	196000

Each substance was assayed against human α4β7 integrin (human) (UniProt P13612) (assay: inhibition of HUT 78 cell adhesion to murine MAdCAM-1/mCk at 500 µM).

Substance	% Adhesion Inhibition [%]
H-WRGLDTSLGS	76
Ac-RGLDTSLG	75
H-HWRGLDTSLGSV	80
Ac-WRGLDTSLGS	71
Ac-HWRGLDTSLGSV	71
Ac-RVHWRGLDTSLGSVQ	88
Ac-Lle-Asp-Thr-Ser-Leu (peptide)	17
NH2-Leu-Asp-Thr-Ser-Leu (peptide)	22
[NMeL]LDTSL	54
Ac-[NMeL]LDTSL	28
H-RVHWRGLDTSLGSVQ	90
